Reference: the RNAGym collection of RNA variant scans (doi:10.7554/elife.90254)

B1: OR4K15 (parent)
chain: GUUAACGGUCAUAGGCCAUGGAAACUAGGAGCACCAUUUCGCUGCCAGUGAAGAAAUGAACAAAGAAAAUCUGGGCCAGGCAGGCAUCAAAAGAAAUAGUCUUGCGCUCAACCAGAAAGUCUGUAAUCAUUUUAAGGGUA

Variants of: B1
Assay: self-cleavage, relative activity (ratio to wild type); higher = more cleavage; in vitro, sequencing; the parent is a self-cleaving ribozyme

Going from A66G A95U to A66G A95G, the self-cleavage rises from 0.2 to 1.54.

Compared with A66G A95C, A67G A89U is higher in self-cleavage: 1.5 for the first, 1.53 for the second.

First: A67G A89C
Second: A63U A92G
The self-cleavage of the first is lower: 1.63 for the first, 1.88 for the second.

Going from A62U C85U to A67G C76U, the self-cleavage falls from 1.31 to 0.07.

Compared with A64U U108A, A63G A82G is higher in self-cleavage: 0.02 for the first, 0.74 for the second.

Going from A63G A82U to A67G A134G, the self-cleavage rises from 0.24 to 1.7.

Going from A66U A67G to A63U A98U, the self-cleavage rises from 0.98 to 1.84.

Going from A62U A116G to A67C U87C, the self-cleavage rises from 1.13 to 1.79.

Going from A67G A68U to A64G A95G, the self-cleavage falls from 1.13 to 1.12.

Compared with A64G A95U, A64U A68G is higher in self-cleavage: 0.64 for the first, 2.16 for the second.

Compared with A67G A96G, A67G A96U is lower in self-cleavage: 1.53 for the first, 1.03 for the second.

First: A64U G75A
Second: A63G G99U
The self-cleavage of the first is lower: 0.1 for the first, 1.14 for the second.

First: A66U U70A
Second: A63G A91G
The self-cleavage of the first is lower: 0.62 for the first, 0.98 for the second.

First: A66G U100A
Second: A66G U100C
The self-cleavage of the first is lower: 0.58 for the first, 2.05 for the second.

First: A66G A114U
Second: A66U U100C
The self-cleavage of the first is lower: 0.08 for the first, 2.47 for the second.

Going from A63U A126G to A63C U139C, the self-cleavage rises from 1.31 to 1.97.

Going from A62U A140G to A64G A67G, the self-cleavage rises from 0.67 to 1.27.

Compared with A66G A92G, A63G U131G is higher in self-cleavage: 0.74 for the first, 1.99 for the second.

First: G65C A111G
Second: G65C A111U
The self-cleavage of the first is lower: 0.01 for the first, 0.07 for the second.

Compared with A63G U72G, A64G U133C is higher in self-cleavage: 0.29 for the first, 1.5 for the second.

Going from A64G U133A to A64G U133G, the self-cleavage falls from 1.52 to 1.05.

First: A64G C121G
Second: A66G U133C
The self-cleavage of the first is higher: 2.89 for the first, 1.82 for the second.

First: A64G U127A
Second: A66U A82G
The self-cleavage of the first is higher: 2.12 for the first, 0.92 for the second.

Compared with A66U A82U, A66U is higher in self-cleavage: 0.24 for the first, 1.36 for the second.

Going from A66G to A66C, the self-cleavage falls from 1.09 to 1.02.

Compared with A66U A117G, A67G A111U is lower in self-cleavage: 1.44 for the first, 0.12 for the second.

Compared with A63G G83A, A66C A92G is lower in self-cleavage: 1.84 for the first, 1.21 for the second.

Going from A64U G79U to A63U U97C, the self-cleavage rises from 0.17 to 1.05.

Compared with A66U A135G, A66U A135U is lower in self-cleavage: 1.83 for the first, 0.74 for the second.

First: A66G U70C
Second: A62U A125G
The self-cleavage of the first is higher: 0.75 for the first, 0.71 for the second.

First: A63G C88U
Second: A66G A86C
The self-cleavage of the first is higher: 1.69 for the first, 1.45 for the second.

Going from A66G A86G to A64U A86G, the self-cleavage rises from 1.16 to 1.85.

Going from A63U A69G to A67G A140C, the self-cleavage rises from 0.49 to 1.47.

First: A66G A89U
Second: A63G U103A
The self-cleavage of the first is higher: 1.97 for the first, 0.88 for the second.

Compared with A63G U103C, A63G U124C is lower in self-cleavage: 1.38 for the first, 1.17 for the second.

Compared with A63U A118U, A64C U131C is higher in self-cleavage: 1.02 for the first, 1.9 for the second.

Compared with A66U U72A, A64G U139C is higher in self-cleavage: 0.2 for the first, 1 for the second.

Going from A64G A89C to A64G A89G, the self-cleavage rises from 0.64 to 1.49.

Compared with G65A U124A, A66G G83C is lower in self-cleavage: 1.36 for the first, 0.2 for the second.

Compared with A66G G83U, A66G A67G is higher in self-cleavage: 0.61 for the first, 1.22 for the second.

Compared with A63G U127C, A63G U127A is higher in self-cleavage: 0.58 for the first, 1.47 for the second.

Going from A64U A92G to A63U U70C, the self-cleavage rises from 1.11 to 1.68.

Compared with A64U A91G, A66G G73A is lower in self-cleavage: 1.04 for the first, 0.15 for the second.

First: G65A U72C
Second: A62U A111U
The self-cleavage of the first is higher: 0.21 for the first, 0.07 for the second.

First: A63U A89C
Second: A64U A95G
The self-cleavage of the first is lower: 1.22 for the first, 1.95 for the second.

Going from A67G A125U to A66G U97A, the self-cleavage rises from 0.11 to 2.11.

First: A66G U97C
Second: A64U U100C
The self-cleavage of the first is lower: 1.98 for the first, 2.38 for the second.

Going from A64U U100A to A64G A111G, the self-cleavage falls from 0.29 to 0.05.

Going from A64G A111U to A63G A78U, the self-cleavage rises from 0.1 to 0.22.

First: A63G A78G
Second: A63C A90G
The self-cleavage of the first is lower: 0.31 for the first, 1.79 for the second.

Going from A63G U122A to A63G U122C, the self-cleavage falls from 1.47 to 1.16.

Compared with A64U A78G, A64G A68G is higher in self-cleavage: 0.47 for the first, 1.54 for the second.

First: A64U A135G
Second: A64G U108C
The self-cleavage of the first is higher: 1.22 for the first, 0.01 for the second.

Compared with A64U A89G, A64U A118G is lower in self-cleavage: 1.6 for the first, 1.42 for the second.

Compared with A66G C76A, A64G A110G is lower in self-cleavage: 0.23 for the first, 0.22 for the second.

Compared with A64G A110C, A63G U97A is higher in self-cleavage: 0.36 for the first, 1.94 for the second.

Going from A63U A96U to A63G G123A, the self-cleavage rises from 2.14 to 2.17.

Compared with A64G U122C, A64G U122A is lower in self-cleavage: 1.81 for the first, 0.95 for the second.

Compared with A62U U102C, A66G A78G is lower in self-cleavage: 1.91 for the first, 0.31 for the second.

First: A66G G137A
Second: A63G A92G
The self-cleavage of the first is higher: 2.07 for the first, 1.66 for the second.

First: A67G A82C
Second: A67G A82G
The self-cleavage of the first is lower: 0.13 for the first, 0.6 for the second.

Going from A63G U87A to A63G U87C, the self-cleavage falls from 2.02 to 1.59.

Compared with A63G U139C, A63G A118G is lower in self-cleavage: 1.1 for the first, 0.83 for the second.

Going from A63G A118U to A63G A94G, the self-cleavage rises from 0.84 to 1.98.

Compared with A64G A82G, A64G A96G is higher in self-cleavage: 0.35 for the first, 1.92 for the second.

Compared with A64G A96U, A63U A68G is lower in self-cleavage: 0.91 for the first, 0.87 for the second.

Compared with A63G A95G, A62U G93A is lower in self-cleavage: 2.26 for the first, 2.2 for the second.

Compared with A64G A140G, A64U A96C is lower in self-cleavage: 1.47 for the first, 1.28 for the second.

First: G65C A89U
Second: A63U G99U
The self-cleavage of the first is higher: 2.04 for the first, 1.03 for the second.

Compared with A64C A82U, G65A A117G is higher in self-cleavage: 0.26 for the first, 0.36 for the second.

Going from G65A A117U to A67G A118C, the self-cleavage rises from 0.6 to 0.76.

Going from A63C U132C to A63G G79A, the self-cleavage falls from 2.13 to 0.11.

Going from A63G U120A to A63G U120C, the self-cleavage rises from 0.94 to 1.27.

Going from A66G U120C to A64G A134U, the self-cleavage falls from 1.71 to 1.07.

Compared with G65A A140G, A63G A129G is lower in self-cleavage: 2.16 for the first, 0.9 for the second.

Compared with A63G A129U, A67G A116U is lower in self-cleavage: 0.61 for the first, 0.14 for the second.

Compared with A67G A116C, A67G A116G is higher in self-cleavage: 0.26 for the first, 0.71 for the second.

First: A64C A96G
Second: A63G U108C
The self-cleavage of the first is higher: 1.27 for the first, 0.02 for the second.

Going from A63G U108A to A63G U108G, the self-cleavage rises from 0.01 to 0.03.

First: A67G C77U
Second: A62U U132A
The self-cleavage of the first is lower: 1.03 for the first, 2.19 for the second.

Compared with A64G G137U, A66G A82U is lower in self-cleavage: 2.23 for the first, 0.29 for the second.

Compared with A66G A125G, A64G U70A is higher in self-cleavage: 0.25 for the first, 0.97 for the second.

First: G65A U130C
Second: A66G A94G
The self-cleavage of the first is lower: 0.71 for the first, 1.55 for the second.

Variant A64G A90U has a self-cleavage of 1.58.
